± gives the uncertainty stated by the source.
B1: Unconventional myosin-Ie, residues 1051 to 1108; numbered along this chain, Q12965 (parent)
chain: PQVPQCKALYAYDAQDTDELSFNANDIIDIIKEDPSGWWTGRLRGKQGLFPNNYVTKI

Variants of: B1
Assay: abundance fitness (aPCA) (normalised: wild type 0, dead -1); higher = more abundant; growth selection in yeast, the domain comes from the species named
Details: Homo sapiens

Question: With PQVPQCKALYAYDAQDTDELSFNANDIIDQIKEDPSGWWTGRLRGKQGLFPNNYVTKI [I30Q] as the variant, how does the abundance fitness read?
Answer: -0.891 ± 0.19

Question: Which abundance fitness does the source give for PQVPQCKALYAYDAQDTDELSFNANDIIDSIKEDPSGWWTGRLRGKQGLFPNNYVTKI [I30S] here?
Answer: -0.992 ± 0.13

Question: With PQVPQCKALYAYDAQDTDELSFNANDIIDCIKEDPSGWWTGRLRGKQGLFPNNYVTKI [I30C] as the variant, how does the abundance fitness read?
Answer: -0.378 ± 0.04

Question: With PQVPQCKALYAYDAQDTDELSFNANDIIDWIKEDPSGWWTGRLRGKQGLFPNNYVTKI [I30W] as the variant, how does the abundance fitness read?
Answer: -0.967 ± 0.14

Question: With PQVPQCKALYAYDAQDTDELSFNANDIIDGIKEDPSGWWTGRLRGKQGLFPNNYVTKI [I30G] as the variant, how does the abundance fitness read?
Answer: -0.719 ± 0.071

Question: For PQVPQCKALYAYDAQDTDELSFNANDIIDHIKEDPSGWWTGRLRGKQGLFPNNYVTKI [I30H], which abundance fitness is on record?
Answer: -0.765 ± 0.21

Question: With PQVPQCKALYAYDAQDTDELSFNANDIIDVIKEDPSGWWTGRLRGKQGLFPNNYVTKI [I30V] as the variant, how does the abundance fitness read?
Answer: 0.058 ± 0.054

Question: Which abundance fitness does the source give for PQVPQCKALYAYDAQDTDELSFNANDIIDMIKEDPSGWWTGRLRGKQGLFPNNYVTKI [I30M] here?
Answer: -0.465 ± 0.097

Question: For PQVPQCKALYAYDAQDTDELSFNANDIIDKIKEDPSGWWTGRLRGKQGLFPNNYVTKI [I30K], which abundance fitness is on record?
Answer: -1.04 ± 0.17

Question: With PQVPQCKALYAYDAQDTDELSFNANDIIDEIKEDPSGWWTGRLRGKQGLFPNNYVTKI [I30E] as the variant, how does the abundance fitness read?
Answer: -0.864 ± 0.069

Question: With PQVPQCKALYAYDAQDTDELSFNANDIIDDIKEDPSGWWTGRLRGKQGLFPNNYVTKI [I30D] as the variant, how does the abundance fitness read?
Answer: -0.628 ± 0.24

Question: With PQVPQCKALYAYDAQDTDELSFNANDIIDYIKEDPSGWWTGRLRGKQGLFPNNYVTKI [I30Y] as the variant, how does the abundance fitness read?
Answer: -1 ± 0.14

Question: Which abundance fitness does the source give for PQVPQCKALYAYDAQDTDELSFNANDIIDFIKEDPSGWWTGRLRGKQGLFPNNYVTKI [I30F] here?
Answer: -0.736 ± 0.33

Question: With PQVPQCKALYAYDAQDTDELSFNANDIIDRIKEDPSGWWTGRLRGKQGLFPNNYVTKI [I30R] as the variant, how does the abundance fitness read?
Answer: -1.01 ± 0.067

Question: For PQVPQCKALYAYDAQDTDELSFNANDIIDNIKEDPSGWWTGRLRGKQGLFPNNYVTKI [I30N], which abundance fitness is on record?
Answer: -0.85 ± 0.32

Question: With PQVPQCKALYAYDAQDTDELSFNANDIIDAIKEDPSGWWTGRLRGKQGLFPNNYVTKI [I30A] as the variant, how does the abundance fitness read?
Answer: -0.78 ± 0.12

Question: Which abundance fitness does the source give for PQVPQCKALYAYDAQDTDELSFNANDIIDTIKEDPSGWWTGRLRGKQGLFPNNYVTKI [I30T] here?
Answer: -0.745 ± 0.16

Question: With PQVPQCKALYAYDAQDTDELSFNANDIIDLIKEDPSGWWTGRLRGKQGLFPNNYVTKI [I30L] as the variant, how does the abundance fitness read?
Answer: -0.077 ± 0.055

Question: For PQVPQCKALYAYDAQDTDELSFNANDLIDIIKEDPSGWWTGRLRGKQGLFPNNYVTKI [I27L], which abundance fitness is on record?
Answer: -0.15 ± 0.047

Question: With PQVPQCKALYAYDAQDTDELSFNANDCIDIIKEDPSGWWTGRLRGKQGLFPNNYVTKI [I27C] as the variant, how does the abundance fitness read?
Answer: -0.261 ± 0.059

Question: For PQVPQCKALYAYDAQDTDELSFNANDHIDIIKEDPSGWWTGRLRGKQGLFPNNYVTKI [I27H], which abundance fitness is on record?
Answer: -0.306 ± 0.069

Question: With PQVPQCKALYAYDAQDTDELSFNANDFIDIIKEDPSGWWTGRLRGKQGLFPNNYVTKI [I27F] as the variant, how does the abundance fitness read?
Answer: -0.274 ± 0.099

Question: With PQVPQCKALYAYDAQDTDELSFNANDGIDIIKEDPSGWWTGRLRGKQGLFPNNYVTKI [I27G] as the variant, how does the abundance fitness read?
Answer: -0.927 ± 0.062

Question: With PQVPQCKALYAYDAQDTDELSFNANDVIDIIKEDPSGWWTGRLRGKQGLFPNNYVTKI [I27V] as the variant, how does the abundance fitness read?
Answer: -0.085 ± 0.049

Question: With PQVPQCKALYAYDAQDTDELSFNANDWIDIIKEDPSGWWTGRLRGKQGLFPNNYVTKI [I27W] as the variant, how does the abundance fitness read?
Answer: -0.466 ± 0.048

Question: For PQVPQCKALYAYDAQDTDELSFNANDQIDIIKEDPSGWWTGRLRGKQGLFPNNYVTKI [I27Q], which abundance fitness is on record?
Answer: -0.327 ± 0.077

Question: With PQVPQCKALYAYDAQDTDELSFNANDTIDIIKEDPSGWWTGRLRGKQGLFPNNYVTKI [I27T] as the variant, how does the abundance fitness read?
Answer: -0.26 ± 0.074

Question: Which abundance fitness does the source give for PQVPQCKALYAYDAQDTDELSFNANDRIDIIKEDPSGWWTGRLRGKQGLFPNNYVTKI [I27R] here?
Answer: -0.374 ± 0.049

Question: With PQVPQCKALYAYDAQDTDELSFNANDDIDIIKEDPSGWWTGRLRGKQGLFPNNYVTKI [I27D] as the variant, how does the abundance fitness read?
Answer: -0.618 ± 0.038

Question: For PQVPQCKALYAYDAQDTDELSFNANDPIDIIKEDPSGWWTGRLRGKQGLFPNNYVTKI [I27P], which abundance fitness is on record?
Answer: -0.681 ± 0.24

Question: With PQVPQCKALYAYDAQDTDELSFNANDAIDIIKEDPSGWWTGRLRGKQGLFPNNYVTKI [I27A] as the variant, how does the abundance fitness read?
Answer: -0.47 ± 0.057

Question: For PQVPQCKALYAYDAQDTDELSFNANDSIDIIKEDPSGWWTGRLRGKQGLFPNNYVTKI [I27S], which abundance fitness is on record?
Answer: -0.655 ± 0.087

Question: For PQVPQCKALYAYDAQDTDELSFNANDMIDIIKEDPSGWWTGRLRGKQGLFPNNYVTKI [I27M], which abundance fitness is on record?
Answer: -0.156 ± 0.065

Question: For PQVPQCKALYAYDAQDTDELSFNANDYIDIIKEDPSGWWTGRLRGKQGLFPNNYVTKI [I27Y], which abundance fitness is on record?
Answer: -0.19 ± 0.042

Question: For PQVPQCKALYAYDAQDTDELSFNANDKIDIIKEDPSGWWTGRLRGKQGLFPNNYVTKI [I27K], which abundance fitness is on record?
Answer: -0.228 ± 0.042

Question: Which abundance fitness does the source give for PQVPQCKALYAYDAQDTDELSFNANDEIDIIKEDPSGWWTGRLRGKQGLFPNNYVTKI [I27E] here?
Answer: -0.432 ± 0.058

Question: Which abundance fitness does the source give for PQVPQCKALYAYDAQDTDELSFNANDNIDIIKEDPSGWWTGRLRGKQGLFPNNYVTKI [I27N] here?
Answer: -0.233 ± 0.093

Question: Which abundance fitness does the source give for PQVPQCKALYAYDAQDTDELSFNANDIIDIPKEDPSGWWTGRLRGKQGLFPNNYVTKI [I31P] here?
Answer: -0.87 ± 0.15

Question: For PQVPQCKALYAYDAQDTDELSFNANDIIDIVKEDPSGWWTGRLRGKQGLFPNNYVTKI [I31V], which abundance fitness is on record?
Answer: -0.054 ± 0.034

Question: For PQVPQCKALYAYDAQDTDELSFNANDIIDIMKEDPSGWWTGRLRGKQGLFPNNYVTKI [I31M], which abundance fitness is on record?
Answer: -0.051 ± 0.078

Question: For PQVPQCKALYAYDAQDTDELSFNANDIIDIEKEDPSGWWTGRLRGKQGLFPNNYVTKI [I31E], which abundance fitness is on record?
Answer: -0.26 ± 0.055

Question: Which abundance fitness does the source give for PQVPQCKALYAYDAQDTDELSFNANDIIDIDKEDPSGWWTGRLRGKQGLFPNNYVTKI [I31D] here?
Answer: -0.359 ± 0.073

Question: With PQVPQCKALYAYDAQDTDELSFNANDIIDILKEDPSGWWTGRLRGKQGLFPNNYVTKI [I31L] as the variant, how does the abundance fitness read?
Answer: 0.001 ± 0.042

Question: Which abundance fitness does the source give for PQVPQCKALYAYDAQDTDELSFNANDIIDIYKEDPSGWWTGRLRGKQGLFPNNYVTKI [I31Y] here?
Answer: -0.25 ± 0.091

Question: With PQVPQCKALYAYDAQDTDELSFNANDIIDINKEDPSGWWTGRLRGKQGLFPNNYVTKI [I31N] as the variant, how does the abundance fitness read?
Answer: -0.891 ± 0.45

— the Human Domainome abundance scans (Beltran et al. 2025)
